Data taken from patent US20250271431A1.

Experiments:
Test in all cases: RepliTope peptide microarray, Cy5 fluorescence
[1] = molecular target: epitope sequence SEQ ID No 15 (…) (SARS-CoV-2)
[2] = molecular target: epitope sequence SEQ ID No 17 (…) (SARS-CoV-2)
[3] = molecular target: epitope sequence SEQ ID No 18 (…) (SARS-CoV-2)
[4] = molecular target: epitope sequence SEQ ID No 19 (…) (SARS-CoV-2)
[5] = molecular target: epitope sequence SEQ ID No 35 (…) (SARS-CoV-2)
[6] = molecular target: epitope sequence SEQ ID No 37 (…) (SARS-CoV-2)

B1: hcAb B10 (clone B10), camelid full length IgG2 heavy chain only antibody (antibody)
heavy: DVQLQESGGGLVQPGGSLRLSCAASGDINTIGTMNWFRQAPGKGREFVALITSGGTTNYADSVKGRFTVSRDNAKNTVYLQMNSLKPEDTAVYHCYGADHYSDYWGQGTQVTVSSEPKTPKPQPQPQPQPNPTTESKCPKCPAPELLGGPSVFIFPPKPKDVLSISGRPEVTCVVVDVGQEDPEVSFNWYIDGAEVRTANTRPKEEQFNSTYRVVSVLPIQHQDWLTGKEFKCKVNNKALPAPIEKTISKAKGQTREPQVYALAPHREELAKDTVSVTCLVKGFYPPDINVEWQRNRQPEPEGTYATTPPQLDNDGTYFLYSKLSVGKNTWQRGETFTCVVMHETLHNHYTQKSISQS
- average signal intensity (mean pixel value) [1]: 23000
- average signal intensity (mean pixel value) [2]: 45000
- average signal intensity (mean pixel value) [3]: 32800
- average signal intensity (mean pixel value) [4]: 2400
- average signal intensity (mean pixel value) [5]: 10500
- average signal intensity (mean pixel value) [6]: 13900
